Assay results reported in the supplement of paper PMC10065799, “High-throughput profiling of sequence recognition by tyrosine kinases and SH2 domains using bacterial peptide display” (eLife, 2023).

Columns and labels:
c-Src SH2 = experiment: SH2 binding enrichment of the phosphorylated peptide, bacterial display (enrichment ratio); higher = better substrate or ligand; peptides without Tyr show the background
Grb2 SH2 = Grb2 SH2 (UniProt P62993); experiment: as above
SHP2-C SH2 = experiment: as above
EPHB1 = EPHB1 (UniProt P54762); experiment: phosphorylation enrichment, bacterial display (enrichment ratio); higher = better substrate or ligand; peptides without Tyr show the background
Jak2 = Jak2 (UniProt O60674); experiment: as above
EPHB2 = EPHB2 (UniProt P29323); experiment: as above
FGFR3 = FGFR3 (UniProt P22607); experiment: as above
c-Src = experiment: as above
Fer (mouse) = experiment: as above
Fyn = Fyn (UniProt P06241); experiment: as above
Hck = Hck (UniProt P08631); experiment: as above
AncSZ = experiment: as above
FGFR1 = FGFR1 (UniProt P11362); experiment: as above
c-Abl (mouse) = experiment: as above
MERTK = MERTK (UniProt Q12866); experiment: as above
Fes = Fes (UniProt P07332); experiment: as above
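For SH2 binding enrichment of the phosphorylated peptide, bacterial display in this document: peptide library displayed on the E. coli surface as eCPX fusions, selected cells deep-sequenced, score is each peptide's frequency after selection divided by its frequency in the input.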
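For phosphorylation enrichment, bacterial display in this document: 11-residue human phosphosite peptides and single-mutation variants displayed on the E. coli surface, counted by deep sequencing, each peptide's frequency after selection divided by its frequency in the unselected input library; frequency after pTyr selection over input frequency; kinase dosed for 20-30% of maximal phosphorylation in three min.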

Grb2 SH2, sequence (P62993 whole entry, looked up): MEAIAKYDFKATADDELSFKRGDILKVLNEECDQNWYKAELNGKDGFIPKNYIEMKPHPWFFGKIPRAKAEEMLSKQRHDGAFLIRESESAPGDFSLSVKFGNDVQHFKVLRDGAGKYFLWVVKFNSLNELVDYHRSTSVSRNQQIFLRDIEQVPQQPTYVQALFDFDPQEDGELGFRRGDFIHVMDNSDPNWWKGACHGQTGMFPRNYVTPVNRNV
EPHB2, sequence (P29323 whole entry, looked up): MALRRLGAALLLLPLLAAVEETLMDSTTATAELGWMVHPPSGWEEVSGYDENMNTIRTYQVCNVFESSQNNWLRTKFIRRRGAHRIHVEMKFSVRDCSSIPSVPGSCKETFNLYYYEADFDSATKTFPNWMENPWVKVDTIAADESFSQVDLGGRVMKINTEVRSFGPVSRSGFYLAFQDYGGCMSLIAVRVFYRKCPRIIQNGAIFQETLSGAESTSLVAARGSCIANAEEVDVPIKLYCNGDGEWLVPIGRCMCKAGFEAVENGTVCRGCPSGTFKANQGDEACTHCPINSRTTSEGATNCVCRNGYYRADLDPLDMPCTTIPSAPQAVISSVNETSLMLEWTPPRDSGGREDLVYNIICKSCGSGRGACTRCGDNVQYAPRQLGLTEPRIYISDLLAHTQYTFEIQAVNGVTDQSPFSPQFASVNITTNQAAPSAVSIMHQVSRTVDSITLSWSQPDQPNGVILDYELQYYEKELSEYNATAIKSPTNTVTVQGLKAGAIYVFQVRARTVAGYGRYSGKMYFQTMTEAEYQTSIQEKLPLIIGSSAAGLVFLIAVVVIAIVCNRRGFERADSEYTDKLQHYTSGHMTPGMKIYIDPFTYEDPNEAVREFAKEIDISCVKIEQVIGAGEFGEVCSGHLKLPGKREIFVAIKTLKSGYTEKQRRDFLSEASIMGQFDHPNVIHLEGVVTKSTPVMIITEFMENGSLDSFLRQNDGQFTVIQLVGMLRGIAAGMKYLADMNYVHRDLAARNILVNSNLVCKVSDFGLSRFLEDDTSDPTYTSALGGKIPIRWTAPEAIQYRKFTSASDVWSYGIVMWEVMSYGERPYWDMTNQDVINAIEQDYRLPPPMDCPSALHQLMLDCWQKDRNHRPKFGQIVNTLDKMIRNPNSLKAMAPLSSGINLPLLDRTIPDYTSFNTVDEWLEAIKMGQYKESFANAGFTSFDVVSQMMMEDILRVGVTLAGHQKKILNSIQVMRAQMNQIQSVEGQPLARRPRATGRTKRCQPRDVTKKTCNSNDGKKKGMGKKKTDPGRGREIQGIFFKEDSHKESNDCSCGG
Fes, sequence (P07332 whole entry, looked up, the tested form may be a part): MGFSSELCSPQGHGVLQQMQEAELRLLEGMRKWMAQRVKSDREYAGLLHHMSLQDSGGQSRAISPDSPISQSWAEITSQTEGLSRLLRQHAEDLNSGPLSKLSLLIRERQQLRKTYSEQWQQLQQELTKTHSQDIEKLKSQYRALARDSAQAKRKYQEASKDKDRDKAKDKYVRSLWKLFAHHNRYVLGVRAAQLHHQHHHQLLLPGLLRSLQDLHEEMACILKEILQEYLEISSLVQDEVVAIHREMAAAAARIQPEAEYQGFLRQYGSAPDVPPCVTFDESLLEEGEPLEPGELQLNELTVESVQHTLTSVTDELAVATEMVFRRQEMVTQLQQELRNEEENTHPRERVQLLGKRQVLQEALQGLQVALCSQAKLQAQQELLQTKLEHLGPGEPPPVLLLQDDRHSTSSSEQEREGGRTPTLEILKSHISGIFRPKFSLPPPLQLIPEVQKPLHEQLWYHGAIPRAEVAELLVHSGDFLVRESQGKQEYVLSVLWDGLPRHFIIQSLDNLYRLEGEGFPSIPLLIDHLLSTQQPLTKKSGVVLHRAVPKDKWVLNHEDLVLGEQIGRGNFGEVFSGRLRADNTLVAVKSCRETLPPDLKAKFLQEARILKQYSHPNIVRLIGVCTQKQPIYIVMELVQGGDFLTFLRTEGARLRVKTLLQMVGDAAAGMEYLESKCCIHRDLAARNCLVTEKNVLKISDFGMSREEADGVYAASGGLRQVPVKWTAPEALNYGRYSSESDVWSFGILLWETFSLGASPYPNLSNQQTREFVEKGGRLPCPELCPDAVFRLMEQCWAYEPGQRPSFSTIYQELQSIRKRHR
Hck, sequence (P08631 whole entry, looked up): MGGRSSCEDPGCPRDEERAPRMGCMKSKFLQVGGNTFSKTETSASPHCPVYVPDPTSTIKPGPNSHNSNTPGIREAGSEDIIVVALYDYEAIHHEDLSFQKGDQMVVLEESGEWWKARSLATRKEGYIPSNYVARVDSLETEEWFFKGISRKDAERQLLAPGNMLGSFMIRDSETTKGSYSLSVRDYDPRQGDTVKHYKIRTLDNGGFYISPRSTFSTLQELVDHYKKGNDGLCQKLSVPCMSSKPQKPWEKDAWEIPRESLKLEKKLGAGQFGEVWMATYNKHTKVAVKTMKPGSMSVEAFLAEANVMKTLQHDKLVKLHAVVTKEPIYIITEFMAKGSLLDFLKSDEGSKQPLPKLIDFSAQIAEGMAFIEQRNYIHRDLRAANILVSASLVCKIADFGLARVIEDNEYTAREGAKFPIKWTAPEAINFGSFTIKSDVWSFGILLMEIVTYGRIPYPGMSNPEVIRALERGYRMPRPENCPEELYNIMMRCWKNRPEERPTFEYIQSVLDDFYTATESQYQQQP
EPHB1, sequence (P54762 whole entry, looked up): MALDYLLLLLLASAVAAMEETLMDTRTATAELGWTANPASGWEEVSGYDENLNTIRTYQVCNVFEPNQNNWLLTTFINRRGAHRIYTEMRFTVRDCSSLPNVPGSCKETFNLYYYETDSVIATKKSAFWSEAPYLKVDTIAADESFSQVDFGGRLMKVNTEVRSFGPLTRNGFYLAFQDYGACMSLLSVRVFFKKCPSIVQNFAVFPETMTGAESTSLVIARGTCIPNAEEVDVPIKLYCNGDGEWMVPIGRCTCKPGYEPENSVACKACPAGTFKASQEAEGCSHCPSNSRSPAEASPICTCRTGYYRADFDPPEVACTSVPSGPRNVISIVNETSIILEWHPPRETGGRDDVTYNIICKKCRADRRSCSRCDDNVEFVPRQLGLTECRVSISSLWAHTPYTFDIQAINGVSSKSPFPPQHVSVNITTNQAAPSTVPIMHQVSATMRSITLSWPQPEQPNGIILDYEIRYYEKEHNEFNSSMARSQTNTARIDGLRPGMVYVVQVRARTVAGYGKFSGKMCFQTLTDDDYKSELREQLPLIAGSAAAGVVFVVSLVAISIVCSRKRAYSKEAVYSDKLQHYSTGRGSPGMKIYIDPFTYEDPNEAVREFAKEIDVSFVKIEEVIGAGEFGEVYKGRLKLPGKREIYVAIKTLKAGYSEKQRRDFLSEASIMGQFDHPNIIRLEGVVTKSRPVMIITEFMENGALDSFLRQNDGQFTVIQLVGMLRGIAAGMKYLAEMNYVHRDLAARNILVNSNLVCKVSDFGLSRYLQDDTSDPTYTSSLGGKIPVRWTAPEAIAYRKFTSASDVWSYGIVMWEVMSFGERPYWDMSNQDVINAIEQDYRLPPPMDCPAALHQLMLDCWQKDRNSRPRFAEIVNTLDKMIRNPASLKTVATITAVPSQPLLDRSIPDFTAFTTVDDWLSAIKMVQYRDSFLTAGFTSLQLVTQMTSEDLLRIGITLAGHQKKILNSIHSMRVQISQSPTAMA
Fyn, sequence (P06241 whole entry, looked up): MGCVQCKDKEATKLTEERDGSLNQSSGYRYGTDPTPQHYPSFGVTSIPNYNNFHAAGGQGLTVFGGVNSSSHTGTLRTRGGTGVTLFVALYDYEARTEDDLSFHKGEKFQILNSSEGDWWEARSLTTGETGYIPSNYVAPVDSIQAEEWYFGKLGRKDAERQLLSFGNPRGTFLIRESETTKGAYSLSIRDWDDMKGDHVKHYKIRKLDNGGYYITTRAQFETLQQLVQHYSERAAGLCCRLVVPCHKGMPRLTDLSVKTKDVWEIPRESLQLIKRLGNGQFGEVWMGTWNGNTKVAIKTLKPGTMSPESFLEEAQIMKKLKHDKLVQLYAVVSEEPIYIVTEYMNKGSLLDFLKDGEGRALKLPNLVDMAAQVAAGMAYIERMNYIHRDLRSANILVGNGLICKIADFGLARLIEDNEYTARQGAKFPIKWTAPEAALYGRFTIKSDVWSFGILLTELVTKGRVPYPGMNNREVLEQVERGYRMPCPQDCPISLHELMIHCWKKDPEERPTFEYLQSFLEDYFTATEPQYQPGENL
FGFR3, sequence (P22607 whole entry, looked up): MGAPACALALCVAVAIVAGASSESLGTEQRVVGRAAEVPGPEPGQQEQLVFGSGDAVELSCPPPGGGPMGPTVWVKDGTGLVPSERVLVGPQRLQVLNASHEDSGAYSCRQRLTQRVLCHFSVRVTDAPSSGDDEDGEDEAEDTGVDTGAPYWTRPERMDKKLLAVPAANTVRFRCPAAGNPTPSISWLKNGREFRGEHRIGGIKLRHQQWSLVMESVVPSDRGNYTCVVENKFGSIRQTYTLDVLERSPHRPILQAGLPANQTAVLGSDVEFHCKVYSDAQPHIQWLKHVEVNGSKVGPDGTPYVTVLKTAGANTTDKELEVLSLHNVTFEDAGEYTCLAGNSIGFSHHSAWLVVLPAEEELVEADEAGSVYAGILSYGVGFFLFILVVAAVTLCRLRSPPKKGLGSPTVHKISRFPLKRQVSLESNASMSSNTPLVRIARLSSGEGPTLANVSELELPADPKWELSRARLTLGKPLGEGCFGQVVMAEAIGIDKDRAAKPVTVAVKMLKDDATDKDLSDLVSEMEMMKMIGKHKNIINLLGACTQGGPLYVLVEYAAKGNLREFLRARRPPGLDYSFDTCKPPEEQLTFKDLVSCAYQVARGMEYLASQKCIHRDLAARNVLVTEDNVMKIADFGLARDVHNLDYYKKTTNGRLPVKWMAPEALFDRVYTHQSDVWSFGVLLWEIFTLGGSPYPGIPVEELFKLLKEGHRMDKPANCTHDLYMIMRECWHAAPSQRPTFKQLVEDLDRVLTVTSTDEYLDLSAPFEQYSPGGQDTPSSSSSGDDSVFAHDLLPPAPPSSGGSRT

Sequence	SH2 binding enrichment (c-Src SH2)	SH2 binding enrichment (Grb2 SH2)	SH2 binding enrichment (SHP2-C SH2)	phosphorylation enrichment (EPHB1)	phosphorylation enrichment (Jak2)	phosphorylation enrichment (EPHB2)	phosphorylation enrichment (FGFR3)	phosphorylation enrichment (c-Src)	phosphorylation enrichment (Fer (mouse))	phosphorylation enrichment (Fyn)	phosphorylation enrichment (Hck)	phosphorylation enrichment (AncSZ)	phosphorylation enrichment (FGFR1)	phosphorylation enrichment (c-Abl (mouse))	phosphorylation enrichment (MERTK)	phosphorylation enrichment (Fes)
LYNQDYPIHCV [GATM_Y227_S231C]	0.638	0.902	0.689	0.614	0.754	0.592	1.64	0.558	0.632	0.639	0.767	0.811	2.66	0.625	0.463	0.954
RKLVDYNSARH [BIN1_Y150_D151N]	0.686	0.972	0.814	0.311	0.425	0.338	0.326	0.378	0.419	0.389	0.383	0.559	0.376	0.548	0.393	0.568
LFEDRYLLGPS [ASS1_Y87_T91P_YF]	0.552	0.965	0.515	0.857	1.73	0.872	1.12	0.689	0.634	0.793	0.804	1.07	0.679	1.07	0.58	1.42
AMCVRYDGVEV [ADAMTSL2_Y594]	0.859	0.805	0.682	0.764	1	0.735	0.781	0.542	0.791	0.583	0.644	1.19	0.7	0.817	0.49	1.26
VITTLYIGFLG [KCNQ1_Y267_L262V]	0.615	0.888	0.862	0.759	1.15	0.636	0.874	1.84	0.605	1.34	1.32	1.18	0.692	0.931	0.659	1.25
DPADRYLIEQC [CDKL5_Y286_T288I]	0.544	0.88	0.67	0.626	1.06	0.682	0.777	0.518	0.511	0.51	0.556	1.19	0.587	0.903	0.467	1.32
NHFKRYNLCAE [PTEN_Y68_I67R_YF]	0.644	0.949	0.618	0.384	0.59	0.565	0.471	0.538	0.419	0.459	0.449	0.638	0.456	0.678	0.485	0.668
PSQRRNVYYYS [PTEN_Y174_Y174N]	1.25	0.923	0.828	0.397	0.916	0.657	1.41	0.9	0.568	0.837	0.74	0.567	1.36	0.47	4.42	0.838
KLVRLYAVVTR [LYN_Y306]	0.869	1.1	2.41	0.799	1.15	0.633	0.794	0.611	0.474	0.402	0.49	1.35	0.483	0.971	0.497	1.14
ERDFTYDELLN [EIF2S2_Y176_E177D_YF]	1.2	1.07	0.789	0.616	1.46	0.598	0.815	0.796	0.638	0.667	0.994	1.53	0.58	0.894	0.537	1.33
CPYNLYAEQFS [HGD_Y40_L44F]	0.706	0.855	0.645	4.18	0.989	3.18	0.973	6.06	2.09	3.86	3	1.46	0.877	0.72	3.9	1.16
EQKKFYNAMKK [SCN5A_Y1495_YF]	0.859	1.06	0.955	0.299	0.569	0.317	0.339	0.373	0.34	0.325	0.367	0.484	0.394	0.52	0.379	0.576
GQECEYPPTQD [METAP2_Y137]	0.521	0.918	0.831	0.866	1.24	0.67	0.852	0.563	0.609	0.534	0.63	1.34	0.584	1.06	0.525	1.41
RRNEEYCLLAS [ITK_Y198_D202A]	0.627	1.11	0.498	1.55	0.741	0.72	0.977	0.57	0.594	0.536	0.84	0.976	0.888	0.522	0.703	0.924
CSSGGYEPRGR [FUS_Y239_R234C]	0.472	0.887	0.654	0.411	0.594	0.439	0.547	0.353	0.475	0.411	0.436	0.801	0.432	0.528	0.396	0.861
TFMKQYPKVFL [CNBD1_Y70]	0.559	0.836	0.811	0.54	0.591	0.541	0.56	0.486	0.436	0.525	0.473	0.82	0.55	0.521	0.364	1.09
TKLKDYYIFNK [CCDC42_Y149_A144T]	0.88	1.05	1.1	0.811	1.49	0.691	3.16	1.37	0.538	0.579	0.752	1.02	4.92	0.736	1.28	0.91

Sequence	SH2 binding enrichment (c-Src SH2)	SH2 binding enrichment (Grb2 SH2)	SH2 binding enrichment (SHP2-C SH2)	phosphorylation enrichment (EPHB1)	phosphorylation enrichment (Jak2)	phosphorylation enrichment (EPHB2)	phosphorylation enrichment (FGFR3)	phosphorylation enrichment (c-Src)	phosphorylation enrichment (Fer (mouse))	phosphorylation enrichment (Fyn)	phosphorylation enrichment (Hck)	phosphorylation enrichment (AncSZ)	phosphorylation enrichment (FGFR1)	phosphorylation enrichment (c-Abl (mouse))	phosphorylation enrichment (MERTK)	phosphorylation enrichment (Fes)
VVLVSYVPFSQ [SH2B1_Y624_S627F]	0.906	1.28	1.03	0.716	1.38	0.702	0.771	0.833	0.501	0.55	0.648	1.29	0.526	0.938	0.496	1.37
LSVEIYDRREF [ITGB7_Y753_YF]	0.542	0.985	0.648	0.428	0.958	0.483	0.824	1.01	0.595	0.946	2.83	1.26	0.498	0.569	0.522	1.25
VPANRYDLLRL [FARSB_Y72_C76R]	3.31	0.765	0.648	0.424	0.54	0.403	0.58	0.393	0.452	0.39	0.429	0.519	0.414	0.498	0.451	0.65
CTTIHYNFLCN [TP53_Y234_M237L_YF]	2.28	1.93	2.12	0.54	0.623	0.576	0.674	0.499	0.554	0.531	0.469	0.873	0.556	0.585	0.435	0.941
SISLRYEGRVY [ABL1_Y167]	0.685	1.11	0.881	0.606	1.06	0.563	0.776	0.394	0.546	0.513	0.506	1.07	0.484	0.803	0.428	1.09
RRIHSYRGRLW [VHL_Y112_H115R]	0.372	0.967	0.561	0.865	0.68	0.641	0.811	0.7	0.637	0.547	0.754	0.956	0.733	0.836	0.538	0.771
QFQEKYKQVEQ [HCN4_Y531_YF]	0.603	0.624	0.876	0.663	2.09	0.95	0.706	0.679	0.63	0.564	0.882	1.27	0.699	0.913	0.559	1.29
PSQRHYVFFFS [PTEN_Y174_R173H_YF]	0.896	1.25	1.16	0.926	1.92	0.763	1.2	0.787	0.535	0.757	0.712	2.04	0.759	1.22	0.892	2.72
IQKWEYVPLGP [FAH_Y244]	0.656	0.834	0.558	0.612	1.43	0.521	0.822	0.453	0.454	0.514	0.48	1.02	1.11	0.791	0.597	1.01
EPGSLYGCGGG [ATM_Y2019_D2016G]	0.589	1.24	0.695	0.548	0.707	0.527	0.567	0.918	0.818	0.851	2.19	0.77	0.52	0.584	0.634	0.803
GSESDYIVMPN [SCARB1_Y133]	0.455	0.874	0.55	8.5	1.03	8.31	3.84	0.63	0.455	0.575	0.527	2.88	5.92	0.752	0.538	1.04
REIIAYQPYGK [PRKCG_Y529_P524R]	0.808	0.833	0.538	0.429	0.531	0.617	0.415	0.405	0.357	0.625	0.563	0.83	0.329	0.467	0.294	0.721
HKLSFNEFDFE [BTK_Y40_Y40N_YF]	0.471	0.789	0.456	0.829	1.53	0.859	0.882	0.864	0.788	0.834	0.918	1.61	0.795	1.02	0.712	1.58
PTFKHYANSTQ [SLC12A3_Y70_E68K_YF]	0.335	0.671	0.499	0.603	0.455	0.506	0.599	0.365	0.509	0.482	0.507	0.651	0.574	0.591	0.375	0.774
WRRLIYRCQVG [NR2E3_Y81_R76W]	0.366	0.939	0.561	0.389	0.837	0.486	0.515	0.494	0.489	0.452	0.424	0.906	0.487	0.65	0.484	0.784
RAEAQYLLVSN [LRIG1_Y1054]	0.431	0.884	0.62	0.639	0.933	0.551	1.78	0.648	0.43	0.466	0.493	0.897	2.61	0.665	0.681	0.761
